According to patent publication US20140086936A1:
Each block holds one binder with its values, some of them ahead of it.

What was measured:
[1] = target: T1, Recombinant purified human matriptase (amino acids 596-855) (human), Q9Y5Y6; test: enzyme inhibition, fluorogenic substrate Boc-Gln-Ala-Arg-AMC, mixed model fit
T1 chain: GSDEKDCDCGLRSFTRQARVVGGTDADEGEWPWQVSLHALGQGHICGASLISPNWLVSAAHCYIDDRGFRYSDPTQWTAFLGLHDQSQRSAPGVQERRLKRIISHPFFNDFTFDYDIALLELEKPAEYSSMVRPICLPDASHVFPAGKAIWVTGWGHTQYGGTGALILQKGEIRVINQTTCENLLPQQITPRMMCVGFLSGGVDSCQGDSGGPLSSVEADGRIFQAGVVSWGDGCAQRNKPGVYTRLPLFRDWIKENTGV

[2] = target: T1, Recombinant purified human matriptase …; test: enzyme inhibition, fluorogenic substrate Boc-Gln-Ala-Arg-AMC, Morrison tight-binding fit
[3] = target: T1, Recombinant purified human matriptase …; test: ratio of Ki values, enzyme inhibition
[4] = target: T1, Recombinant purified human matriptase …; test: enzyme inhibition, 1 nM matriptase, 1 µM inhibitor, Boc-Gln-Ala-Arg-AMC 50 µM
[5] = target: Bovine trypsin (bovine), P00760; test: enzyme inhibition, selectivity profile, Morrison tight-binding fit
Bovine trypsin (bovine), P00760, sequence (P00760 24-246): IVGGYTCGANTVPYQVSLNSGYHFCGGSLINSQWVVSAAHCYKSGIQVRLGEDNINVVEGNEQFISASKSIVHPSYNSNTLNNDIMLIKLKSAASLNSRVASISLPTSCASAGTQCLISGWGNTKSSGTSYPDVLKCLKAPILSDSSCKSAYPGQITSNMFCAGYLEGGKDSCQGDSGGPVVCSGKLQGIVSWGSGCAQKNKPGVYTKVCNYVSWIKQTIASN

[6] = target: T2, matriptase-2 (human), Q8IU80; test: as above
T2 chain: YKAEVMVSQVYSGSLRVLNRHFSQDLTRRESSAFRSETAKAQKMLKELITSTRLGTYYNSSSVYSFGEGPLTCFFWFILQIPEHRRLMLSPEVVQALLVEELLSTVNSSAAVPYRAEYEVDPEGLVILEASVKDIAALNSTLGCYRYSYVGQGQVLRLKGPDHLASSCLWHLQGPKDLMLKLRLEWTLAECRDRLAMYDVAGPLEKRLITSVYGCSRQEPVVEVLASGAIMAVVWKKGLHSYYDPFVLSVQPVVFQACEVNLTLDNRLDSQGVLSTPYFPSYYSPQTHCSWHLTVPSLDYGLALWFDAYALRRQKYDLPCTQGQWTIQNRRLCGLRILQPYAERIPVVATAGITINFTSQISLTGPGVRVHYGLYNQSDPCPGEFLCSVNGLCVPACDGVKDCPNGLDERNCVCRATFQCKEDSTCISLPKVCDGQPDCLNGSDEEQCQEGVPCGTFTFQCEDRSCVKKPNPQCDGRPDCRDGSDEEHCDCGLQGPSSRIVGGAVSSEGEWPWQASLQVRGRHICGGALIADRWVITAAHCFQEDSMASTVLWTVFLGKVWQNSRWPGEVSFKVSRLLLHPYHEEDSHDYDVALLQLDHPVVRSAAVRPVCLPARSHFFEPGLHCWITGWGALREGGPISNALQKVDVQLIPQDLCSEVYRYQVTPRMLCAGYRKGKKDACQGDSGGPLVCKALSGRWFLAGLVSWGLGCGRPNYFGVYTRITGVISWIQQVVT

TMPRSS11D, O60235 = target: T3, TMPRSS11D, O60235; test: as above
T3 chain: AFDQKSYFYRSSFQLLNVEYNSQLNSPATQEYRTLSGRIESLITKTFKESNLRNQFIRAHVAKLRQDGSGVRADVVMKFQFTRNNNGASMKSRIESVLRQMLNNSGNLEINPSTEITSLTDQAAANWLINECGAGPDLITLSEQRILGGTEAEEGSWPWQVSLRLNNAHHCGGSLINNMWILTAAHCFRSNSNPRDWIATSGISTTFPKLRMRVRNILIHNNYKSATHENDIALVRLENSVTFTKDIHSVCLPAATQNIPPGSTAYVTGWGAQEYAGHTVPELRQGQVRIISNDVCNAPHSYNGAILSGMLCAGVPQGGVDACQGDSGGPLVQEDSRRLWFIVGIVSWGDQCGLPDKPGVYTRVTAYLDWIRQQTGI

thrombin = test: enzyme inhibition, selectivity profile, mixed model fit
[7] = target: T1, Recombinant purified human matriptase …; test: enzyme inhibition, 1 nM enzyme, Boc-Gln-Ala-Arg-AMC substrate
hepsin (human), P05981 = test: as above
hepsin (human), P05981, sequence (P05981 45-417 limits assumed): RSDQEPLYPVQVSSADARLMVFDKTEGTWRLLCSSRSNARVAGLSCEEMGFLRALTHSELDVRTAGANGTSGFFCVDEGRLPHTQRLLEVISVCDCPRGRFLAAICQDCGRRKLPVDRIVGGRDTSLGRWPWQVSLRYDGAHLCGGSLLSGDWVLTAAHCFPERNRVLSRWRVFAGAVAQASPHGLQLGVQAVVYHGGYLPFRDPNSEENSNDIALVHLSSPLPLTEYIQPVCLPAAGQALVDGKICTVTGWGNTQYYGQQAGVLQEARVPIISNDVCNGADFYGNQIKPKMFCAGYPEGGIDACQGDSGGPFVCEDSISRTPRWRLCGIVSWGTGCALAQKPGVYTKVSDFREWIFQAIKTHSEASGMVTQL

- Ki [1]: 6120 nM
Binder: RQAR (modifications not checked) [reduced form of RQAR-ketobenzothiazole]

- Ki [2]: 4.6 nM
Binder: RQAR (modifications not checked) [R-Q-A-(D)R ketobenzothiazole (compound 7)]

- Ki [2]: 9.5 nM
- change of Ki relative to compound 1 (orders of magnitude) [3]: 3
- percent inhibition of matriptase activity at 1 µM [4]: 25%
Binder: RQAK (modifications not checked) [RQAK-ketobenzothiazole]

- Ki [5]: 0.97 nM
- Ki [6]: 3.3 nM
- Ki (TMPRSS11D, O60235): 8.4 nM
- Ki (thrombin): 637 nM
- IC50 [7]: 29 nM
- IC50 (hepsin (human), P05981): 540 nM
Binder: RQAR (modifications not checked) [RQAR-ketobenzothiazole]
